Source: the DeepSol protein solubility set

Experiment: soluble on expression in E. coli; label from the status in PepcDB or PDB records

Row | Sequence | soluble on expression in E. coli
1 | MTQRDTGRLDAIVLAAGRGVRFGGGKLTALLDGDPLVAAALLTAFLAPARRVVVAVGPEPDVRQAVEATATRLLARERLVLVPIDDPSAGMGASLAAAARSLPGDTDGVFVFLGDMPRIDPATPRHLAAALRDPGDIVAPTYLGRRGHPVLFGARWAPVLGALSGDEGARAIVDKAGESLVLVPVDDPGVHLDVDRPSDLARVQTDRRTLLEHHHHHH | soluble
2 | MKGYGEMAKNNPTRITAEPGKQEIIITREFDAPRELVFKAFTDPDLYTQWIGPRGFTTALKIFEPKNGGSWQYIQKDPEGNEYAFHGVNHDVTEPERIISTFEFEGLPEKGHVILDTARFEALPGDRTKLTSHSVFQTIEDRDGMLQSGMEEGINDSYERLDELLEKMKKLEHHHHHH | soluble
3 | MIAIIDYGMGNIRSVEQALKYIGAAYIVTSDKEEIFRSDGVILPGVGAFPKAMDILEEKDLVRVLQEIGRSRKPLLGICLGMQLLFEKSEELQDCNGLSLLPGVIRKLKVPYKIPHMGWNELKKEGEIALWNGVEDGSFVYYVHSYYADCPNEIVYGISDYGVKVPGFVAKGNIYGAQFHPEKSGDIGMQMLKNFKGVVETWKSSQLSI | soluble
4 | MGSDKIHHHHHHMHKTRYNALSVAFQISPRGPLLIKAGGISANPTLPDMQFVRTYHPYYGYTVYIPGSSLKGVVRGFVEKALRTLDDHTSWQWACPTFPDEDESCAKKLGKEENSATIYKNSCGACRLFGHTRLKGRVAFTDLLPVDEVKTEIRYGVAISRLSHAVAHGPFEMEVAVAGTFEGYLILENFELWQLGLLVLAFQGMNSGLLQIGFGKNRGFGEVAVQVQEARLDEVTSGMEIGLWRGLADFVSDEEKTRYGLSTTFTLNGMPDPLRTEPLGLYTRRIYDPKRWDEVAQRVTDKLGTT | not soluble
5 | MSKRKVAIIGSGNIGTDLMIKILRHGQHLEMAVMVGIDPQSDGLARARRMGVATTHEGVIGLMNMPEFADIDIVFDATSAGAHVKNDAALREAKPDIRLIDLTPAAIGPYCVPVVNLEANVDQLNVNMVTCGGQATIPMVAAVSRVARVHYAEIIASIASKSAGPGTRANIDEFTETTSRAIEVVGGAAKGKAIIVLNPAEPPLMMRDTVYVLSDEASQDDIEASINEMAEAVQAYVPGYRLKQRVQFEVIPQDKPVNLPGVGQFSGLKTAVWLEVEGAAHYLPAYAGNLDIMTSSALATAEKMAQSLARKAGEAA | soluble
6 | MGSDKIHHHHHHACILFVCFLYTNNEIGVTSSKLEADIRSSQKIKDDWTVDGSVSSTMAAYISYPQDLSDHSFSVYVNRPGLSFGYFFRGGGTLSGIQRGIVEFTVEGYNERAFISMNQQQVQQLEIDDGNTIQVVDIDRNKPFAIVLPINAGNITFYDVNRNTVEYWNNPL | not soluble
7 | MAHHHHHHMELGTPNVLPGYDASKSANGSENAKTIISDVNANYNAERKNHTVTHNDEKEGTTHDGGGDEPPQTHSNTERDKEDKIKFEKKKKKSDKLKKEREKEIVVAYWLKGIVKILNAGLKNGDIKGSNFIGKKIAEVLKKVVEISHWNNVYDLIEIIKYLGKEIIRNNKMYFIIPNIIRRVLTIIRTEHFKQLYLYNNNYVDNLNKNNNFLVDKNTNKCINSKYVYEREIKNFEQSFSFYFENNSKKNTYHIPATNTLRHSIIEGITELIADIDTSWGETEQRTSYDLFMENDVILTMGYSVGVEKFLKNINKKKDGISVIVVGGDINRNGFRMAQLLSEDGVDTTYISDSAVFAVIPKVTKVVLGSVAVSSSGGVITKIGGYNIACSAQFNSKPVTIVLPLFKLINDPFYDPIRQNELQPGPSMIYNDADNLYVRIPKYDYIPEHLITLYITEIGPVDSFQLYNITKRTYHPDDLDLSFD | not soluble
8 | MGSDKIHHHHHHAYFFNVAFVPGQKSVLNKYSSKKKKDPFAQNKKWYADAKKEQWYIKSASSNYCLDANYIPKKNSHKTAVLLHGFMNNKDTMAPYAAMFHQLGYNVLIPDARAHGKSQGKYIGYGWPEKYDVQKWVKKDIAEKGKKQKIVIFGVSMGGATTMMTSGLKMPKQVKAYIEDCGYTDVKSEFLYEAKDIYKMPKLVASSAVAILSGVSKANLGFYLGDASAVNQLKKNKLPMMFIHGSKDNFVPTKMVYQNYKATNGPKELWIAEKAAHARSFETYPREYKARVSKFLNKYV | not soluble
9 | MSLKQYETIILHRHVRPDPDAYGSQMGLAEIIRASFPEKKVYSVGNDEKSLQFLGIVDEITDEIYKDALVIVCDTANQERISDGRFNLGKALIKIDHHPNDDAYGDLLWVDTTASSCSEMIVAFWEMFSDELILNETAARLLYAGIVGDTGRFLYPSTTEETLRLSAHLVTFPFDRPALYRELYELPKNTVKLSGYILQNFVMDENGAATVYLSDTLLNEFEVDPRDASALVSCIENVKGIKAWIMFIQEGPVFRARLRSKGPVINELAKEYGGGGHPLASGATLHNEEEIKEMTAKLQRIEGHHHHHH | not soluble
10 | MSSQNDYQSNGRYDNIYSQIDSEAKMSFSVDVLANIAIELQRGIGHQDRFQRLITTLRQVLECDASALLRYDSRQFIPLAIDGLAKDVLGRRFALEGHPRLEAIARAGDVVRFPADSELPDPYDGLIPGQESLKVHACVGLPLFAGQNLIGALTLDGMQPDQFDVFSDEELRLIAALAAGALSNALLIEQLESQNMLPGDATPFEAVKQTQMIGLSPGMTQLKKEIEIVAASDLNVLISGETGTGKELVAKAIHEASPRAVNPLVYLNCAALPESVAESELFGHVKGAFTGAISNRSGKFEMADNGTLFLDEIGELSLALQAKLLRVLQYGDIQRVGDDRCLRVDVRVLAATNRDLREEVLAGRFRADLFHRLSVFPLSVPPLRERGDDVILLAGYFCEQCRLRQGLSRVVLSAGARNLLQHYSFPGNVRELEHAIHRAVVLARATRSGDEVILEAQHFAFPEVTLPTPEVAAVPVVKQNLREATEAFQRETIRQALAQNHHNWAACARMLETDVANLHRLAKRLGLKD | not soluble
11 | MQTISDNAANAIQEIFGRSKALIGMIHCPAFPGAPRYRNASMDAIYDACMRDAERLIEGGMHGLIVENHGDVPFSKPDDIGPETSAFMSVVTDRIVRTAGVPVGINVLANAPIPAFAIAKAGGAKFIRVNQWANAYVANEGFMEGRAAEAMRYRSLLRAEHIKVFADSHVKHGAHAITADRSIDELTRDLAFFDADGVIATGQRTGNSASLEEIEEIGAATHLPLLVGSGVNEGNIVEILKRTSGVIVASSLKEGGVWWNPVELARVRSFVAAARPGLEALEHHHHHH | soluble
12 | SMSNANPFFSQSLAERDASVRGAILKELERQQSQVELIASENIVSRAVLDAQGSVLTNKYAEGYPGKRYYGGCEFADEVEALAIERVKRLFNAGHANVQPHSGAQANGAVMLALAKPGDTVLGMSLDAGGHLTHGAKPALSGKWFNALQYGVSRDTMLIDYDQVEALAQQHKPSLIIAGFSAYPRKLDFARFRAIADSVGAKLMVDMAHIAGVIAAGRHANPVEHAHVVTSTTHKTLRGPRGGFVLTNDEEIAKKINSAVFPGLQGGPLMHVIAGKAVAFGEALTDDFKTYIDRVLANAQALGDVLKAGGVDLVTGGTDNHLLLVDLRPKGLKGAQVEQALERAGITCNKNGIPFDPEKPTITSGIRLGTPAGTTRGFGAAEFREVGRLILEVFEALRTNPEGDHATEQRVRREIFALCERFPIY | soluble
13 | MSLGRFKTLLNQEDYLILHGALGTELEFLGYDVSGKLWSAKYLLENPSIIQTIHETYLRSGSDIVTTSSYQASYQGLCDYGLSQEEAEKMIALTVSLAKNAREKVWQELSEKEKQVRPYPLISGDVGPYAAYLADGSEYTGNYGQLDKEVLKDFHRSRIKILVDEGSDLLALETIPNFLEAQALVELLQEEFPSVEAYMSFTAQNGTTISDGTAIEEVAELIDKASQILALGINCSSPSVYSSLLKKIADITDKPLVTYPNSGEVYDGQHQMWTQSADISHTLLENTKIWHTFGAKVVGGCCRTRPNDIESLSRGLREEGHHHHHH | soluble
14 | MVHLAKYIVVTGGVVSSIGKGITAASIGRILRSYGLSVTAIKIDPYLNWDSGTLNPYQHGEVFVTDDGMETDLDLGHYERFLDSDLPGEANITTGKVYMSVINKERSGDYLGSCVQIIPHITDEIKSMIRKIADKSGAEVVLVEVGGTVGDIEGQPFLEALRQLRNEEGHENVMFVHVTYVPYLRAAGEFKTKPTQHSTKELRSTGINPDMIICRSEMPIDSSLKRKIAHFCDVEEEAVVNAPDASSIYEVPLVLDSERVGDYIVRRIELDVDGEADLSEWAGIVESLMIDEPVVTVGIVGKYVELEDSYISIREALKHAAAHLRVRVDIEWISADDAVNEEDLSRLDSILIPGGFGERGIAGKLEAVRFALENRVPIFGICLGMQCMVIEFARLNGMEGANSTEFDPETPYPVIDMMEEQKRIKNMGGTMRLGSYQCRIREGTLAHEAYGTELVGERHRHRFELNNEFREELESKGLIISGTSPDDFLVEMVEIKDHPWFLGCQFHPEFRSRPNRAHPLFVSFLRAALERSR | soluble
15 | MPDDEKIKLRYSPEESARLIKEEARRLGFSACGFAEAQALPPSVVGTYEKFLSEGRHGEMDYLERNRELRYSPAELLPGTRTVISVALNYYPKIKQPASAPQIAYYAYGKDYHKVVKRLLDKLLDYIRREVCPSVSGRSFSDSAPIAERYWACRAGIGWVGRSGMLILPRGGTFFFLGELLVDIDLPPDAPMPSRCGACRNCIESCPTGAISEEGMDSRLCVSYLTIEHEGEIPPELVGKLGNRFYGCDSCQLCCPWNRYAHPSEVEAFVPREALFTFDRDDLVSLDEEKYLHFFAGSPMKRAGLDGLRRNARALEQGDKKEDEQPTDEDG | not soluble
16 | MGSDKIHHHHHHMKPVVVMTQTNDMQSDLVSIIHKPFIDIKPLNFDIHLLNQRYDWLIFSSKNAVKFFYKYLKGINVDNIAVIGSKTAQYCESLGIRVDFMPNDFSQEGFLKSFNQTNQKILLPSSELARPLLLAALSKDNEVVKIDLYTSVPNKQNIQDVKEMIEHQQIDALTFSSSSAVRYYFNEGFVPKFKSYFAIGEQTARTIKTYQQPVTIAEIQTLESLIEKILESRG | not soluble
17 | MSLKLIATDLNGTLLHQDQGFNQPLLKETLSQLKQRGIRLVLASGNQYAHLKEVFREIWSTDLAVIAENGASIYLGDELVFDGSLTPQQVRLFLSATAQDEFLQNAYLILVGAQGSYTRVGAPAPLIAAAEKFYDHLQQVMSLETVTDRIKKISVSTAPEQAAALVQHLNQRFTGQLRAHDSGYGVIDVVSLHVGKLPAVQWLAQHWQIPATEIVAFGDGANDVPLLNYAGQSYAMKNAPVDIQAQAKHVTVWDNDRDGVLRTIATLLVADEGHHHHHH | soluble
18 | MAKSFNQAASELTDIFPNISLTGFDGVNYPVTVNCPMHGNVRYSTFNALIKSKYGCPECAKMSKTQTPPNVGKPLLILDTTTNETLTFPSVTAAGAALGVHFQQINHRLKGRTSPDNLISNRYKVLGYDR | not soluble
19 | MLSKGAVIDKLKSYKPCENCNGPISKTVSISDLNLDKRKRNCVCGNSQLDDVMLDVLNLMSEYNELQNTDLKDVTLRDAGTPLVEIGYPLKYLPVVSNDELIVMKDVSKACATEILKIPEVKGVISNNSKNNSFNRVEDSGEVNALIAGDDFRCDIFVLKSIMDCVVICKNQSKVHIEFPRPFNPKIAKIDRLNLKGKVVVDGFCGSGTLGLAALKKGAKKVIFSDINPHALKDVIYNLKLNFSKEVFDRIEIINSDFLNLDIVGDVCFVDLFPHMDKEPFLNKAKTISKQVVLILEHHHHHH | not soluble
20 | GHHHHHHHHHHSSGHIEGRHMRVLFVSSPGIGHLFPLIQLAWGFRTAGHDVLIAVAEHADRAAAAGLEVVDVAPDYSAVKVFEQVAKDNPRFAETVATRPAIDLEEWGVQIAAVNRPLVDGTMALVDDYRPDLVVYEQGATVGLLAADRAGVPAVQRNQSAWRTRGMHRSIASFLTDLMDKHQVSLPEPVATIESFPPSLLLEAEPEGWFMRWVPYGGGAVLGDRLPPVPARPEVAITMGTIELQAFGIGAVEPIIAAAGEVDADFVLALGDLDISPLGTLPRNVRAVGWTPLHTLLRTCTAVVHHGGGGTVMTAIDAGIPQLLAPDPRDQFQHTAREAVSRRGIGLVSTSDKVDADLLRRLIGDESLRTAAREVREEMVALPTPAETVRRIVERISG | soluble
